Laboratory results from patent publication US20130253037A1 (PURDUE RESEARCH FOUNDATION, published 2013).

Biological target: T1, Aurora A kinase (endogenous, MDA-MB-231 cells) (human, UniProt O14965 1-403)
T1 sequence (looked up): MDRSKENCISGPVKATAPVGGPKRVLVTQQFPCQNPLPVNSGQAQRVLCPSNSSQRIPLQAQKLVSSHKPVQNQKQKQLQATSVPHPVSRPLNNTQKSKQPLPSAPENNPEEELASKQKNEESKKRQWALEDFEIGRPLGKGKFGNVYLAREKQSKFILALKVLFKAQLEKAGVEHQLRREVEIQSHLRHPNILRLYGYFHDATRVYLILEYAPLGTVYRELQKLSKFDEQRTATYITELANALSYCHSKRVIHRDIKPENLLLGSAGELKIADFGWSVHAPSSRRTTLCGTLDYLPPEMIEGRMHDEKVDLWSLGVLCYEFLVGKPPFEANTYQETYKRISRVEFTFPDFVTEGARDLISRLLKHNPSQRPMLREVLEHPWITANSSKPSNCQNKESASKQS
Experiment: HA-tagged truncated LIMK2 mutants expressed in MDA cells, isolated and analyzed for Aurora A binding
Protocol: LIMK2 contains two LIM domains (12-129), a PDZ domain (152-236), an S/P domain (240-328) and a kinase domain (331-601) (Scott and Olson (2007) J. Mol. Med. 85, 555-568). […] These mutants were transiently expressed in MDA cells, isolated and analyzed for Aurora A binding.
We next investigated whether association of LIM domains of LIMK2 is sufficient for Aurora A stabilization. […] After 30 h, cells were lysed, HA-tagged LIMK2 proteins were isolated and probed for Aurora A binding. […] After 30 h, cells were lysed, HA-tagged LIMK2 proteins were isolated and probed for Aurora A binding.

B1: HA-tagged (1-145) LIMK2 (other, not shown: small tags and cut ends)
chain: MSALAGEDVWRCPGCGDHIAPSQIWYRTVNETWHGSCFRCSECQDSLTNWYYEKDGKLYCPKDYWGKFGEFCHGCSLLMTGPFMVAGEFKYHPECFACMSCKVIIEDGDAYALVQHATLYCGKCHNEVVLAPMFERLSTESVQEQ
notes: also called truncated LIMK2 mutant containing two LIM domains
B1: binds.
